This assay has as its target KARS1 (human), Q15046. Kind of assay: RNA immunoprecipitation with qRT-PCR. The settings on record: remark: other sources report otherwise.

The values that follow come from article PMC9457175.

KARS1 (human), Q15046, sequence (Q15046 whole entry): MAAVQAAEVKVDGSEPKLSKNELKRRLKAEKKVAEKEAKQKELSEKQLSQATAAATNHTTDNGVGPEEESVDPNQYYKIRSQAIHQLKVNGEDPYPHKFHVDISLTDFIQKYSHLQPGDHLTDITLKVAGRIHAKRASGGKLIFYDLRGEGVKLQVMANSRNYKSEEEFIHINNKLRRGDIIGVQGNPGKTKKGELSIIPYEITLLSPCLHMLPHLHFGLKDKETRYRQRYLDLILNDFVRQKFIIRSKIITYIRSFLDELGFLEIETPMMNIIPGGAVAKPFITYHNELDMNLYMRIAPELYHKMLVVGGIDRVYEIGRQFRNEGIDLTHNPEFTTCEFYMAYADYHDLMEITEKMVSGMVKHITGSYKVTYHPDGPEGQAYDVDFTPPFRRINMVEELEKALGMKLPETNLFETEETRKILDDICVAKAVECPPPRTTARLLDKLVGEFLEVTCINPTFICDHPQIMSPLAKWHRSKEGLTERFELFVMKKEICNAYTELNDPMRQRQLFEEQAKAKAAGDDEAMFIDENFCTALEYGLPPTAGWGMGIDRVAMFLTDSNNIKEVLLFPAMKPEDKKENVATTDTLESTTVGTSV

B1: AIMP1, Q12904 (natural protein)
chain: MANNDAVLKRLEQKGAEADQIIEYLKQQVSLLKEKAILQATLREEKKLRVENAKLKKEIEELKQELIQAEIQNGVKQIPFPSGTPLHANSMVSENVIQSTAVTTVSSGTKEQIKGGTGDEKKAKEKIEKKGEKKEKKQQSIAGSADSKPIDVSRLDLRIGCIITARKHPDADSLYVEEVDVGEIAPRTVVSGLVNHVPLEQMQNRMVILLCNLKPAKMRGVLSQAMVMCASSPEKIEILAPPNGSVPGDRITFDAFPGEPDKELNPKKKIWEQIQPDLHTNDECVATYKGVPFEVKGKGVCRAQTMSNSGIK
Take B1: the fold enrichment of mRNA (anti-FLAG RIP over IgG) was 9.7 fold.
